Like-named read-outs stand apart in the source and are kept apart here.
Experiments:
[1] = molecular target: human CD4 on the surface of CD4-expressing T cells (human)
[2] = molecular target: human CD4 on the surface of CD4-expressing T cells (human); remark: listed apart in the source
[3] = molecular target: human CD4 on the surface of CD4-expressing T cells (human); test: IFA on MT2 T cells
[4] = molecular target: human CD4 on the surface of CD4-expressing T cells (human); test: B4-biotin + FITC-avidin on MT2 T cells after medium alone
[5] = molecular target: gp120 of HIV-1 primary isolate ZIM 748 (clade C) (HIV-1)
[6] = molecular target: gp120 of HIV-1 primary isolate VL 135 (clade B) (HIV-1)
[7] = molecular target: gp120 of HIV-1 primary isolate UG029 (clade A) (HIV-1)
[8] = molecular target: gp120 of HIV-1 primary isolate TH036 (clade E) (HIV-1)
[9] = molecular target: gp120 of HIV-1 primary isolate UG266 (clade D) (HIV-1)

Substance	90% neutralization, MT-2 microplaque assay, HIV-1 DH12 (clade B) [1]	90% neutralization, MT-2 microplaque assay, HIV-1 TH036 (clade E) [1]	90% neutralization, MT-2 microplaque assay, HIV-1 UG266 (clade D) [1]	90% neutralization, MT-2 microplaque assay, HIV-1 UGO29 (clade A) [1]	90% neutralization, MT-2 microplaque assay, HIV-1 VL 135 (clade B) [1]	90% neutralization, MT-2 microplaque assay, HIV-1 ZIM 748 (clade C) [1]	% Pos cells [2]	% Pos cells [3]	% Pos cells [4]	90% neutralization, MT-2 microplaque assay, HIV-1 ZIM 748 [5]	90% neutralization, MT-2 microplaque assay, HIV-1 VL 135 [6]	90% neutralization, MT-2 microplaque assay, HIV-1 UGO29 [7]	90% neutralization, MT-2 microplaque assay, HIV-1 TH036 [8]	90% neutralization, MT-2 microplaque assay, HIV-1 UG266 [9]
monoclonal antibody B4	2.1 µg/mL	3.32 µg/mL	25.6 µg/mL	6.76 µg/mL	1.54 µg/mL	2.82 µg/mL	0%	> 95%	> 95%	–	–	–	–	–
recombinant human monoclonal antibody IgG1 b12	–	–	–	–	–	–	–	–	–	> 50 µg/mL	41.7 µg/mL	38.5 µg/mL	> 50 µg/mL	> 50 µg/mL

From patent US6090388
